These results are taken from PMC2174252 (The Journal of Cell Biology, 1999).

The target of the assay is mouse ZO-1 expressed in Sf21 insect cells (mouse, UniProt P39447 1-1745). Description: pull-down.
Sequence of mouse ZO-1 expressed in Sf21 insect cells (P39447 whole entry): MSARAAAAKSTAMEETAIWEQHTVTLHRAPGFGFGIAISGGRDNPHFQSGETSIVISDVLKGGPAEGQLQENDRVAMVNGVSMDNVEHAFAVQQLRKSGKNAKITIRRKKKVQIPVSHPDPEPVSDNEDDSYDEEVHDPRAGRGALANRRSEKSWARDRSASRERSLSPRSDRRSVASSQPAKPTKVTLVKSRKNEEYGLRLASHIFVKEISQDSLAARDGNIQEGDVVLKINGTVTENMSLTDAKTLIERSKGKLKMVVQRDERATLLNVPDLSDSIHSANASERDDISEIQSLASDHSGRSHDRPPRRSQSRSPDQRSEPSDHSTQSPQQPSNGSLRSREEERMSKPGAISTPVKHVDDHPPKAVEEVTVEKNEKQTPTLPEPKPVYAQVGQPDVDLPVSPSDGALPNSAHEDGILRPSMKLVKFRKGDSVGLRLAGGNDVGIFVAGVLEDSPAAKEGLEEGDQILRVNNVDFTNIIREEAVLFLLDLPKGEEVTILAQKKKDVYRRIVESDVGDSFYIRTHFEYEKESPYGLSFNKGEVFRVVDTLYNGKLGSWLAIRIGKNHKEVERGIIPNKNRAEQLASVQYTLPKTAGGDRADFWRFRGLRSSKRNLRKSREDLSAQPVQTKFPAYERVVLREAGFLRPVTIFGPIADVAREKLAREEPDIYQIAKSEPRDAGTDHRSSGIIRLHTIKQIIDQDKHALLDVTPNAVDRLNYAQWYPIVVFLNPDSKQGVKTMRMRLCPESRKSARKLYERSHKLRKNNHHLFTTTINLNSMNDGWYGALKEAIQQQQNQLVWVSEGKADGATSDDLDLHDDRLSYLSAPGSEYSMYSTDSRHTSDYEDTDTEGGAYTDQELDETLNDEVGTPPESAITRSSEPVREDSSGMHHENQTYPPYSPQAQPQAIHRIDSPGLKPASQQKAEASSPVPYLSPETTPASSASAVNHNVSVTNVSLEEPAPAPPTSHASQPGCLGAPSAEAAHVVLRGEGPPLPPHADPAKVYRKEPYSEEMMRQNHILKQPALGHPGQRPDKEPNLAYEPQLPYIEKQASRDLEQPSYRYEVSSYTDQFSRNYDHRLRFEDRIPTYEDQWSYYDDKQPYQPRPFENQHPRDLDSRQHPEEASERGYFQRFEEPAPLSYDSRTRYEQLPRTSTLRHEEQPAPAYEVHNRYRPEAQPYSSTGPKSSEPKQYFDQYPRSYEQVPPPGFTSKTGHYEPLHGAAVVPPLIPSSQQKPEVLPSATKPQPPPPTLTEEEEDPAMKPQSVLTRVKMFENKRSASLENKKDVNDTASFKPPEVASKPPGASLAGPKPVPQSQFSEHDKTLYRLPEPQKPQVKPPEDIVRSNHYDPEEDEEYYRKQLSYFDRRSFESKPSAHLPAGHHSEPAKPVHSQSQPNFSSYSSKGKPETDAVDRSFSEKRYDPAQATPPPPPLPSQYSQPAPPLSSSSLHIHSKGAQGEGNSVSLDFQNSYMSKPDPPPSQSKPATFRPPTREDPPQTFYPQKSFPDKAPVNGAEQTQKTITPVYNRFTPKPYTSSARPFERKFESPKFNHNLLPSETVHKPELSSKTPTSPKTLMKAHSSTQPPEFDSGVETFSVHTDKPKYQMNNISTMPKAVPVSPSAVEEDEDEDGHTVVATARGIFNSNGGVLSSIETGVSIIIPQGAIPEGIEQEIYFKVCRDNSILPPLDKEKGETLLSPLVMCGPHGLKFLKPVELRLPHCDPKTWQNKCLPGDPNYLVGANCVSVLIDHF

B1: GST-XC(1-378), GST fused to Xenopus laevis cingulin residues 1-378 (domain or fragment, UniProt Q9PTD7 1-378, looked up)
chain: MERDIYGDMADQHIPVGQGVQIRFIGDLKENGKPRGKRSKQDSYGVAVRVQGIDGQPFVVLNSGDKAKSSFGVQIKSQEPYLNASNTSPPNYQNYSSKPRGPSRSISSESELPENPYGSRGYRPSSSHYSSASDEEQKPRGNIRGSDGLSSLPRPLQASRREELRRSQSHSSLLEPDVEESYDYDHHYSERSSTLDTTYSQSSRDSAWSRSSQKKIDNGDYPSLGYRSATSQQSTSVSNKTKKNGLSTSSPSNQSNEDIDTKPLSSVDSLINKFDIKGQVRGRTARRSQALKDERKRSQSLDGRKNYHDTADSREIIVEKQNEVQTMREPVNASNRSFNRQTLERGDISKTRLTKEWLDQDREEPVILKQQRTVQSEF
For the molecule B1, the Kd (usually the free concentration of one partner at which half of the binding sites on the other are occupied at equilibrium, for simple one-to-one binding) was around 5 nM.
